# ± gives the standard error. This sample holds only a part of the variants without activity.
# B1: glmS ribozyme (parent)
# chain: AUAAAAGCGCCAGAACUACAGAAAUGUAGUUGACGAGGAGGAGGUUUAUCGAAUUUUCGGCGGAUGCCUCCAAA
# Assays:
# Details in all cases: with glucosamine-6-phosphate
# [1] = variants of: B1; assay: self-cleavage kobs at 640 uM GlcN6P; higher = faster cleavage; RNA array
# How it was run: (§1)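 Ribozyme variants carrying barcodes were transcribed in situ on sequenced MiSeq chips by E. coli RNA polymerase and tracked at 37 °C with a hybridised Cy3 probe. They were exposed to 40 μM to 10 mM glucosamine-6-phosphate in HEPES/KCl/Mg(OAc)2 buffer. kobs came from exponential decay fits of normalised per-tile medians, and kcat and KM from weighted Michaelis–Menten fits.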
# [2] = variants of: B1; assay: self-cleavage kobs at 2500 uM GlcN6P; higher = faster cleavage; RNA array
# How it was run: as §1
# [3] = variants of: B1; assay: self-cleavage kobs at 10000 uM GlcN6P; higher = faster cleavage; RNA array
# How it was run: as §1
Variant,self-cleavage kobs at 640 uM GlcN6P [1] [s⁻¹],self-cleavage kobs at 2500 uM GlcN6P [2] [s⁻¹],self-cleavage kobs at 10000 uM GlcN6P [3] [s⁻¹]
A42C U49G C58A,< 1e-05,< 1e-05,–
G29A G43A U56A,< 1e-05,–,–
C10U U47G G51U U57C C58G A64U,< 1e-05,–,–
C8A A12C G13A,< 1e-05,–,–
A14C G44A A64U,< 1e-05,–,–
G9C G29A G41A,< 1e-05,< 1e-05,–
A12G U55A,0.000161 ± 2.2e-05,0.000248 ± 4e-05,0.00094 ± 8.5e-05
U31C A33U A36U G38C C58U U65G G66C C71U,< 1e-05,< 1e-05,–
C8U C34G A39G G44U,< 1e-05,–,–
G13A A14G G29C C50G,0.000185 ± 6.9e-05,–,–
G13U G40U G63C,< 1e-05,< 1e-05,–
G35A U46C G66A,< 1e-05,–,–
A15G U49G U65G C70A,0.00349 ± 0.0014,–,–
U30A G37A U56A,5.62e-05 ± 1.7e-05,–,–
G35U U45G C61A,< 1e-05,< 1e-05,–
A15G C34A A64C,< 1e-05,–,–
C16U A33U U49A,< 1e-05,< 1e-05,–
A36U G38A A52U C67G,4.67e-05 ± 1.8e-05,4.17e-05 ± 2.1e-05,–

Variant,self-cleavage kobs at 640 uM GlcN6P [1] [s⁻¹],self-cleavage kobs at 2500 uM GlcN6P [2] [s⁻¹],self-cleavage kobs at 10000 uM GlcN6P [3] [s⁻¹]
G43A U55G C61U G62C,< 1e-05,–,–
G66C C68U C70U,0.000337 ± 9.2e-05,–,–
G35C G44C U45C A48G,< 1e-05,< 1e-05,–
G29U U47A A64U,< 1e-05,–,–
U30A U31C A39U,0.00038 ± 0.00011,0.000577 ± 0.00018,–
C34A A39C G59C C61G,< 1e-05,< 1e-05,–
A15C C34U G66C,< 1e-05,< 1e-05,–
A12U A15G U47G,0.00207 ± 0.00042,–,–
G41C A48U C71U,< 1e-05,–,–
G13U A15U C70U,3.4e-05 ± 9.4e-06,7.46e-05 ± 2.2e-05,5.88e-05 ± 1.3e-05
C8G G43A,< 1e-05,< 1e-05,–
A14G U69A C70A,5.74e-05 ± 2.2e-05,8.42e-05 ± 1.9e-05,–
U49G C50G G63C U69C,0.00018 ± 4.2e-05,–,–
G9A U45C A53U G60C,< 1e-05,–,–
U17G G62U,< 1e-05,–,–
C8A G13U C16A A33U U65G C71A,< 1e-05,< 1e-05,–
G7C A39C G40C G44U,< 1e-05,–,–
